Test system: MS2 coat protein
Assay: apparent KD of MS2 coat protein; higher = weaker reporter binding
Conditions: Eterna round: R107
Method in brief: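 Titration buffer: 100 mM Tris-HCl pH 7.5, 80 mM KCl, 4 mM MgCl2, without or with constant ligand. Designed RNA switches transcribed on-chip from Illumina sequencing clusters received SNAP-549-labelled MS2 coat protein in twofold steps from 0.7 or 1.5 nM to 3 µM. Apparent KD is the median per design of fits to normalised cluster binding curves.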

[1] = input ligand: theophylline 20 uM
[2] = input ligand: theophylline 2 mM
[3] = input ligand: tryptophan 2.4 mM

Sequence	apparent KD of MS2 coat protein (input ligand: arginine 13.2 mM) [nM]	apparent KD of MS2 coat protein (input ligand: none) [nM]	apparent KD of MS2 coat protein [1] [nM]	apparent KD of MS2 coat protein [2] [nM]	apparent KD of MS2 coat protein [3] [nM]
AUAUAUGACAGAAGGAGCGCCAUGAACACACAUGAGGAUCACCCAUGUUUUUUUUGUGUUUGGCAGGUAGGUCGCUGACAUGAAA [Same State Arginine B 3]	9.45	8.71	17.7	11.6	9.98
GGACUAACCUGAAGGAGCGGCACGCAGAAACUGCAAAUUCCUCCACACGAGGAUCACCCGUGUCAGGUAGGUCGCAGGUUAGUCG [ArgBX 28]	18	17.1	23.3	22.9	20.3
AAUAACAUGAGGAUCACCCAUGUAAAAGAUACCAGAGUGAUGAUCCUCCCUUGGCAGCUUAAACGCUAUUGAUUACAAUAGCGAA [Mat - Same State Theophlline A - Mod of Eli - D2]	29.8	–	114	–	28.6
ACAUGAGGAUCACCCAUGUCUGCCACUGAUACCAGCGGAAGCCCACGCCCUUGGCAGCAGAACAUGAGGAUCACCCAUGUAGGCU [Same State Theophylline A GF28]	55.8	–	186	–	201
GGGUAUGAUCCGGAUACCAGCGAACAUGAGGAUCACCCAUGUGACCUAAGAUAGGCUAAACGCCCUUGGCAGCCGAGAUUGCGUU [Same State Theophylline B GF7]	32.4	–	49.7	–	41
GAAGAGAGGAUACCGUUUGUAUACAACGAUACCAGUGGUAUGUAUCACCCUUGGCAGCGUGAGACAUGAGGAUCACCCAUGUGGC [theeternabot_exclusion_MS2_Theo_A_46]	14.3	–	26.1	–	18.4
GCCGGGCCCGCGGCCGCCACUGAGAGAGUCGUGUGAACAUGAGGAUCACCCAUGUAAUAUAUAUACAGGACCGGGCGGGCCCGGC [4.X]	13.8	10.4	20.1	15.7	13.9
UAAUAAGUACCGGUCCUCAGAUCCUCAUGACGAGGACCGGUACGGCCGCCACUCGAAACAUGAGGAUCACCCAUGUAAUAAUAAU [|T'-M'-Trp-Ms2|_Design 1]	17.9	22.2	29.4	36.9	18.3
GCCUAGCAGCGAAGGAGCGACAUCGGCGCAUGCGAGGACAUGAGGAUCACCCAUGUACCAUGUCAGGUAGGUCGCGCUGCUAGGC [EAB NP+V+V2 #6]	17.9	23.4	36.4	23.2	24.5
AAAACACAUGAGGAUCACCCAUGUCAUGAUACCAGUCAACAUGAGGACCCUUGGCAGCAUAAAAUGGGUAACAUGAGGAUCACCC [AstrosEXyTheA#1]	129	29.4	93.8	102	50.5
UGUAUGUGAUCUGAUACCAGCCUCAUAGCUUGAGGAUCACCCAAGUGGAGCGGAAACGCUGGCCCUUGGCAGCAGAUCGCAUACU [TheoBS 1 #AlternativeMS2]	252	471	199	13.5	516
CCGACAUGAGGAUCACCCAUGUGAACAGAUACCAGUCUGGUAAUAGACCCUUGGCAGCUGAACCAGGAAACUAUGGUGAUCCUGG [Theo A SS t3]	66	69.8	89.5	187	83.6
GGAUAGGACAGAAGGAGCGACAUGAGGAUCACCCAUGUCUACUACGUCGAAAGACGCUCAUGUCAGGUAGGUCGCUGUCCUAUCG [#28 Exclusion - Arginine B]	70.9	241	263	458	250
AUGCAUAGCGGAAGGAGCGCAAUAGAAUGACAUGAGGAUCACCCAUGUGUGUGAUGUGGAUUGCAGGUAGGUCGCCGAGUGGUAU [Exclusion - Arginine B (Freestyle 3)]	35.9	45.1	57.5	42.7	42.8
ACUAGUUGUGCAGAUACCAGACACGAGGAUCACCCGUGUUUGGGAUGUUCGCAUCUUCCUGUCCCUUGGCAGCUGUACAUCUAGA [Omei Theo B Exc v8]	15.8	15.1	23.5	221	17
AGUAAUCUAAGAGAUACCAGACGGUAUAUAACAUGAGGAUCACCCAUGUUUUGGGUGUACGUCCCUUGGCAGCUCAAAAUGAUAA [#06 Same State - Theophylline B]	123	–	202	–	382
GUGGCGAUCACGGCCGCCACUGAGCAGGUCGAGCUUGACAUGAGGAUCACCCAUGUCUGACGAUACAGGACCGGGUGAUCUCCGC [Titiinanon]	16.5	21.7	94.6	149	19.7
AAAAGAGGUGGAAGGAGCGGGAGACAUGAGGAUCACCCAUGUGAUAUGACAAGAGGAUCAGCCCAGGUAGGUCGCCAUGUCGAAA [pbbbmullin]	17.9	71.1	53.1	103	50
UUGGUACAUGAGGAUCACCCAUGUACUGAAGGAGCGGGACGAAUCUCAGGUAGGUCGCAGACAUGAGGAUCACCCAUGUAUUGGU [Exclusion Arginine A GF 16]	18.9	13	16.4	19	16.5

Sequence	apparent KD of MS2 coat protein (input ligand: arginine 13.2 mM) [nM]	apparent KD of MS2 coat protein (input ligand: none) [nM]	apparent KD of MS2 coat protein [1] [nM]	apparent KD of MS2 coat protein [2] [nM]	apparent KD of MS2 coat protein [3] [nM]
AUAACACAUGAGGAUCACCCAUGUAAGGAUACCAGUUUCUGAUUAAACCCUUGGCAGCCUAGAGAUAGUCAUGUAAUAACGGCGA [theeternabot_sameState_MS2_Theo_A_19]	12.4	–	18.1	–	12.2
GGUAGCAGGACUGAUACCAGUCCAGCGAAUCAUACGACGCAACAUGAGGAUCACCCAUGUGACCCUUGGCAGCAGUCUGCUACCG [Same State Theophylline B GF 29]	28.9	–	23	–	25.7
UGUACUAUGUGAAGGAGCGCCACAUGAGGAUCACCCAUGUAAACAUGAGGAUCACCCAUGUGGCAGGUAGGUCGCACAUAGUACU [ArgBS - Double MS2 - I don't expect this to work]	49.7	108	203	227	78.7
AGAGCAUUGACGGCCGCCACUCGUGUCACAUGAGGAUCACCCAUGUGAUGGGUGAUAGCCCGGUUGAGGACCGGGUCAAUGCUCA [Omei Tryp SS B v7]	13.1	–	16.8	16.2	–
CUAUGCAGGUCGGCCGCCACUACACACAUGAGGAUCACCCAUGUAGUUACUGGGUGAAGUGGCAGUAGGACCGGGACCUGCAUAC [Brourdmod10]	139	391	394	817	362
AAACAUUGCUCAGAUACCAGACAUGAGGAUCACCCAUGUACCAAGGUAAAGAAAUAACGUGUCCCUUGGCAGCUGAGCAAUGAAA [MAT - Exclusion Theophlline B - Mod of Eli - D10]	11.5	–	12.8	–	10.9
CGAUACAAAUAAAGCGUUCGUCCGCCAGAUACCAGAUUCAUUUCCAUCCCUUGGCAGCUGUCGACAUGAGGAUCACCCAUGUUUG [theeternabot_exclusion_MS2_Theo_A_41]	17.2	–	21.7	–	19.9
UAAAAUAUCUGGGUGUAGGUAAUAACAGAUACCAGCCAGAUAACUGGCCCUUGGCAGCUGAAAACAUGAGGAUCACCCAUGUAAA [TheoAS 22 #OpenEnded #Ms2Late]	28.1	30.7	50.3	236	28.6
AUCAUGGCCAUCGAUACCAGCUACAUGAGGAUCACCCAUGUAAACGGCGCGGUGAGAUGUAGCCCUUGGCAGCGAAGGGUCAAGG [Beonrexe]	16.4	16.8	49.2	64	19.6
GGGUACAUCACGGCCGCCACUCAUGUAAAUACAUGAGGAUCACCCAUGUCGAUGGAGACAUCGGAGAGGACCGGGUGAUGUACCG	187	–	394	620	–
GACAAUAAUUCAACAAUCAAAAUAGUGGGACGAGGACCGGUACGGCCGCCACUCGCUGAAGCACAUGAGGAUCACCCAUGUCUAA [theeternabot_exclusion_MS2_Trp_A_47]	14.8	–	19.8	18.7	–
ACAUGAGGAUCACCCAUGUAAAUAGCGGAAGGAGCGUGCAAAAGCACAGGUAGGUCGCCGAUAUAAUAAUUGGGUAAUAUAUUAU [#27 Exclusion - Arginine A]	17.7	39.1	24.6	26.2	26.9
GGGACACCGAGAAGGAGCGCAUCCAAACCACACAUGAGGAUCACCCAUGUAUAAAUAUGCAUGCAGGUAGGUCGCUCGGCGUCUC [Orordionbi]	76.5	120	112	134	111
ACAUGAGGAUCACCCAUGUUCCUCAUUGAUACCAGUGAAUUUAGACGCCCUUGGCAGCGAGUUUUUGAAGAAGAAGUUUUUUUUU [6.D]	235	–	731	–	1080
GUCCUCGUGUCCGGUUUAGCGCAAAGCGCACGAGGACCGGUACGGCCGCCACUCGAAACAUGAGGAUCACCCAUGUGAAGAAUAA [Design 1]	14.4	14.6	21.8	15.8	17.8
UCUUUCUUUGUAGAUACCAGCAUGUUAAGUUUCUUUUGACAUGAGGAUCACCCAUGUACAUGCCCUUGGCAGCUACAUUUUCUUU [SSThB NP+V+V2 Same Structure]	15.6	–	16.3	–	15.4
UCCCUACCGUCGGCCGCCACUGGGUCAUACAGUUCGUAACUACAUGAGGAUCACCCAUGUGCAGCCAGGACCGGGACGCGCCUUG [theeternabot_sameState_MS2_Trp_B_16]	30.2	–	153	148	–
GAUCGACAAAACGUCUAGGAAAACUAGACGCGAGGACCGGUACGGCCGCCACUCGUCCUCACAUGAGGAUCACCCAUGUACGAUC [#SwitchBubble 2 #CuTurnoff]	30.3	–	43.2	46.3	–
AGAGCAUUGACGGCCGCCACUCAUGUCACAUGAGGAUCACCCAUGUGAUGGGUGAUAGCCCGGUUGAGGACCGGGUCAAUGCUCA [Omei Tryp SS B v1]	18.4	–	25.3	20.4	–

Reference: the supplement of paper PMC9170038
